Experimental data as given in patent US20180346588A1 (MOGAM INSTITUTE FOR BIOMEDICAL RESEARCH, published 2018).

Target: T1, recombinant human mesothelin (MSLN) (human, UniProt Q13421 296-580, limits assumed)
T1 construct: also called human MSLN; recombinant human MSLN
Test: SPR, Biacore T-200; MSLN amine-coupled to CM5 chip, IgG in flow
Experimental: Quantitative binding force (affinity) of the purified anti-MSLN antibodies, i.e., the MS502 clone light chain variable region mutation antibodies C2G1, C2G4, and C3C8 with regard to the recombinant human mesothelin (MSLN) was measured by using a Biacore T-200 (GE Healthcare, U.S.A.) biosensor. […] Then, the clone C2G1 antibody, the clone C2G4 antibody or the clone C3C8 antibody serially diluted with HBS-EP buffer (10 mM HEPES, pH7.4, 150 mM NaCl, 3 mM EDTA, 0.005% surfactant P20) was allowed to flow at a concentration range of 0.078 nM to 5 nM and at a flow rate of 30 μL/min for association of 120 seconds and dissociation of 1800 seconds. The dissociation of the antibody bound to the MSLN was induced by flowing 10 mM Glycine-HCl pH 1.5 at a flow rate of 30 μL/min for 30 seconds (Table 13). The affinity was obtained as movement speed constants (Kₒₙ and Koff) and an equilibrium dissociation constant (KD) by using a Biacore T-200 evaluation software (Table 14).

T1 sequence (Q13421 other isoform, or with tags, fused parts or gaps limits assumed): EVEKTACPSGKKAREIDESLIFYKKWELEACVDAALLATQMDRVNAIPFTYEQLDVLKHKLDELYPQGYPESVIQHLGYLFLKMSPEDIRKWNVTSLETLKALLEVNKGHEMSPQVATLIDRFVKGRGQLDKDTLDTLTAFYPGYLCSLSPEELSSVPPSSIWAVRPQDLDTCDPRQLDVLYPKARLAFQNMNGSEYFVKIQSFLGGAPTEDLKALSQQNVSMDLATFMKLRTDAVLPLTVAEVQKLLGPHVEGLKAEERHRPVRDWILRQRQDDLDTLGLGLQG

| Kd [nM] | Binder |
| --- | --- |
| 0.0939 | clone C2G1 (MS502 light chain variable region mutation antibody) (antibody, V domains shown, SPR done with IgG (human IgG1 heavy constant region)) VH: EVQLLESGGGLVQPGGSLRLSCAASGFTFSNYAMSWVRQAPGKGLEWVSGIPPDSGSKYYADSVRGRFTVSRDNSKNTLYLQMNSLRAEDTAVYYCAKNMLSFDYWGQGTLVTVSS VL: QSVLTQPPSASGTPGQRVTISCTGSSSNIGPNAVSWYQQLPGTAPKLLIYYNSKRPSGVPDRFSGSKSGTSASLAISGLRSEDEADYYCGSWDSSLSGYVFGGGTKVTVLG |
| 0.122 | clone C3C8 (MS502 light chain variable region mutation antibody) (antibody, V domains shown, SPR done with IgG (human IgG1 heavy constant region)) VH: EVQLLESGGGLVQPGGSLRLSCAASGFTFSNYAMSWVRQAPGKGLEWVSGIPPDSGSKYYADSVRGRFTVSRDNSKNTLYLQMNSLRAEDTAVYYCAKNMLSFDYWGQGTLVTVSS VL: QSVLTQPPSASGTPGQRVTISCTGSSSNIGPNAVSWYQQLPGTAPKLLIYYNSKRPSGVPDRFSGSKSGTSASLAISGLRSEDEADYYCGSWDSDLRGYVFGGGTKVTVLG |
| 0.0432 | clone C2G4 (MS502 light chain variable region mutation antibody) (antibody, V domains shown, SPR done with IgG (human IgG1 heavy constant region)) VH: EVQLLESGGGLVQPGGSLRLSCAASGFTFSNYAMSWVRQAPGKGLEWVSGIPPDSGSKYYADSVRGRFTVSRDNSKNTLYLQMNSLRAEDTAVYYCAKNMLSFDYWGQGTLVTVSS VL: QSVLTQPPSASGTPGQRVTISCTGSSSNIGSNAVSWYQQLPGTAPKLLIYYNSKRPSGVPDRFSGSKSGTSASLAISGLRSEDEADYYCGSWDPSLNGYVFGGGTKVTVLG |
